Source: article PMC5103362 (Autophagy, 2016)
Where a chain is given by its changes, count along the chain named. Numbers in names are those of the source. Blank lines part the entries; values can stand above or below the binder they belong to.

Key:
[1] = molecular target: the molecule itself; test: crystal structure; full-length Atg38 after limited proteolysis with subtilisin; 2.2 Å, MAD with selenomethionine protein
[2] = molecular target: T1, Vps15 (subunit of the purified yeast complex I) (S. cerevisiae, UniProt P22219 1-1454); test: SEC-MALS; purified yeast complex I (co-expressed, co-purified) and gel-filtration purified complex I + Atg38 on S200 10/30; 20 mM Tris pH 8.8, 150 mM NaCl, 1 mM TCEP; conditions: both partners purified
T1 construct: Vps15, S. cerevisiae
T1 sequence (looked up): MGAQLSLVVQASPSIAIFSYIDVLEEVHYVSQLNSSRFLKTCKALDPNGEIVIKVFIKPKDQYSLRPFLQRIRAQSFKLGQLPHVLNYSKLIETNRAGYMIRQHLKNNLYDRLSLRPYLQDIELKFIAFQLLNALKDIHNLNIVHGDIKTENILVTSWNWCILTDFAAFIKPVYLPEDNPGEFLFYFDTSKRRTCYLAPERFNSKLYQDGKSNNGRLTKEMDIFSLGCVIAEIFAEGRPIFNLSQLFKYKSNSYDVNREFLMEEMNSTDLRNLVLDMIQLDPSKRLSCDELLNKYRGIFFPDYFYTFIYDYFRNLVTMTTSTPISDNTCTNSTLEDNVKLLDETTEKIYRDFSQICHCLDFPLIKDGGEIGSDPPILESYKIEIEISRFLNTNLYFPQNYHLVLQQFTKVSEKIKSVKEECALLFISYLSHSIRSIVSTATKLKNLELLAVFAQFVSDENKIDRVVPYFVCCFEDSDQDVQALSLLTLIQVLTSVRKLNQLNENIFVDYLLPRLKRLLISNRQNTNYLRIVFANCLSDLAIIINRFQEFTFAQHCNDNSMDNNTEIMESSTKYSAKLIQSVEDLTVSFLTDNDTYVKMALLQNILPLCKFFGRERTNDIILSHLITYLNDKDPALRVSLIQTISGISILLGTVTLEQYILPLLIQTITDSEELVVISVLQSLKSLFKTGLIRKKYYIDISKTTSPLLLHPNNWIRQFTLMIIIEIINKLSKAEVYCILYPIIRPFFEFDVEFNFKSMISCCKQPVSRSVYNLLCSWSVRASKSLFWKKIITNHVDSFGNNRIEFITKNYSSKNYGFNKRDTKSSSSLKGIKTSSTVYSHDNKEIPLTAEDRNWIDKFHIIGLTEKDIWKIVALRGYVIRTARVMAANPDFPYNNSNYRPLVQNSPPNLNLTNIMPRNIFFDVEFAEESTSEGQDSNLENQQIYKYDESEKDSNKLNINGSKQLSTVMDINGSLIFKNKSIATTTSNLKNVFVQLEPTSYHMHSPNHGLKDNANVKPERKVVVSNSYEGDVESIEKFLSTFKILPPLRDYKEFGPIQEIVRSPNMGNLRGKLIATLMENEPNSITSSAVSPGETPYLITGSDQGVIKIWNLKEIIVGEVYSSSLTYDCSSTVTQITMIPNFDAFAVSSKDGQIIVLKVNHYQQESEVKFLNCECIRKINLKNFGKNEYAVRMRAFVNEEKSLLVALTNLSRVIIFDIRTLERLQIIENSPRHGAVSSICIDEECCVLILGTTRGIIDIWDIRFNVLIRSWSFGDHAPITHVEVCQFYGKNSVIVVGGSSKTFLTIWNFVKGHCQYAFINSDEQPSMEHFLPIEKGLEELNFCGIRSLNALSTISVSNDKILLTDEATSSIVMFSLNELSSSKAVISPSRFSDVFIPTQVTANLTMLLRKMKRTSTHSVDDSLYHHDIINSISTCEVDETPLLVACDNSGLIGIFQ

Vps15 (WD40Δ) (1 to 981) = molecular target: T2, Vps15 (WD40Δ) (1 to 981) (S. cerevisiae, UniProt P22219 1-981); test: negative-stain EM reconstruction; co-purified yeast Vps15-Vps34 D731N and Vps15 (WD40Δ)-Vps34 D731N dimers, 2% uranyl acetate; 28 Å; conditions: both partners purified
T2 construct: Vps15, yeast (S. cerevisiae), residues 1 to 981, without the WD40 domain; also called Vps15Δ WD40; ScVps15 (WD40Δ)
T2 sequence (looked up): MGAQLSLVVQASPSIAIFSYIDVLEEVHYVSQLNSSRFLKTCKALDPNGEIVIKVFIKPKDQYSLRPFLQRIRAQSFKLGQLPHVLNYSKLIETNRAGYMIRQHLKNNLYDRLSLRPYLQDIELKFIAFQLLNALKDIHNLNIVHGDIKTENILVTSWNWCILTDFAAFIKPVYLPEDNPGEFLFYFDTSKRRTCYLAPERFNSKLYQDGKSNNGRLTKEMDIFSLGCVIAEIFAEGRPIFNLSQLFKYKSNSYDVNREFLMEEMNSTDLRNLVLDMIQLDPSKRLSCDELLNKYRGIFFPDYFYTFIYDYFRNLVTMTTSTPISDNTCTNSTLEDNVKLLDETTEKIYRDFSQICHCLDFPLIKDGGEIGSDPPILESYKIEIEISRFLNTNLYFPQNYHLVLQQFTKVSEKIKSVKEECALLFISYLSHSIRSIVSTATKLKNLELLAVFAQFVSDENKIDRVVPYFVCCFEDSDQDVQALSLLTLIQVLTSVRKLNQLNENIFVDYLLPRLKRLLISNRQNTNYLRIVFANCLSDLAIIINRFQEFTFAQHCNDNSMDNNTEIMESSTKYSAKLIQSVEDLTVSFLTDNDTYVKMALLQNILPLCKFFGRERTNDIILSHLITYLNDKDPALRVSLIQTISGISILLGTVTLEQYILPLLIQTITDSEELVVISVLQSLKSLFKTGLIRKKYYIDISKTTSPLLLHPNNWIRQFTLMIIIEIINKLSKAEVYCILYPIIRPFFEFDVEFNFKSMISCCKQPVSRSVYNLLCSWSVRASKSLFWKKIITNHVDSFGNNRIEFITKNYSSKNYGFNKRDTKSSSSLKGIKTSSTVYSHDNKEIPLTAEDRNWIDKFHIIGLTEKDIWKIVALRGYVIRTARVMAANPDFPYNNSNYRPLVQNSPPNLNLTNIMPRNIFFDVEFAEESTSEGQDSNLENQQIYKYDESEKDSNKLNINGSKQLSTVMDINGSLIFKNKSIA

[3] = molecular target: T3, Vps15, full-length (of the Vps15-Vps34 D731N dimer) (S. cerevisiae, UniProt P22219 1-1454); test: as above; conditions: both partners purified
T3 construct: Vps15, yeast (S. cerevisiae), full-length; also called ScVps15
T3 sequence (looked up): T1 sequence (looked up)

[4] = molecular target: T4, yeast complex I (Vps15-Vps34-Vps30-Atg14 heterotetramer) (S. cerevisiae, UniProt P22219 1-1454; P22543 1-875; Q02948 1-557; P38270 1-344); test: pull-down; GST affinity isolation: GST fusions of Atg38 on glutathione Sepharose, purified yeast complex I at 1.78 µM with 10-fold excess of GST fusion; 50 mM Tris pH 8.8, 150 mM NaCl, 1 mM TCEP, on ice 90 min; stained gel; conditions: both partners purified
T4 construct: Vps15, S. cerevisiae, subunit of complex I; Vps34, S. cerevisiae, subunit of complex I; Vps30/Atg6, S. cerevisiae, subunit of complex I; Atg14, S. cerevisiae, subunit of complex I; expected mass 379 kDa; also called CI; heterotetrameric S. cerevisiae complex I; copies: 1 + 1 + 1 + 1

B1: Atg38 C-terminal homodimerization domain (crystallized region, residues 119 to 211) (domain or fragment, S. cerevisiae, UniProt Q05789 119-211, looked up)
chain: YQDTLSPINDPLLMSILNRLQFNLNNDIQLKTEGGKNSKNSEMKINLRLEQFKKELVLYEQKKFKEYGMKIDEITKENKKLANEIGRLRERWD
notes: Atg38, S. cerevisiae, crystallized region, residues 119 to 211; Limits are those seen in the crystal; the proteolysed protein was not purified further; A selenomethionine derivative was used for phasing; also called Atg38 C-terminal domain; C-terminal region of Atg38; source: E. coli, purified full-length Atg38 subjected to limited proteolysis with subtilisin
- binding result [1]: binds

B2: Vps34 (subunit of the purified yeast complex I) (enzyme, S. cerevisiae, UniProt P22543 1-875, looked up)
chain: MSLNNITFCVSQDLDVPLKVKIKSLEGHKPLLKPSQKILNPELMLIGSNVFPSSDLIVSLQVFDKERNRNLTLPIYTPYIPFRNSRTWDYWLTLPIRIKQLTFSSHLRIILWEYNGSKQIPFFNLETSIFNLKDCTLKRGFESLKFRYDVIDHCEVVTDNKDQENLNKYFQGEFTRLPWLDEITISKLRKQRENRTWPQGTFVLNLEFPMLELPVVFIEREIMNTQMNIPTLKNNPGLSTDLREPNRNDPQIKISLGDKYHSTLKFYDPDQPNNDPIEEKYRRLERASKNANLDKQVKPDIKKRDYLNKIINYPPGTKLTAHEKGSIWKYRYYLMNNKKALTKLLQSTNLREESERVEVLELMDSWAEIDIDDALELLGSTFKNLSVRSYAVNRLKKASDKELELYLLQLVEAVCFENLSTFSDKSNSEFTIVDAVSSQKLSGDSMLLSTSHANQKLLKSISSESETSGTESLPIVISPLAEFLIRRALVNPRLGSFFYWYLKSESEDKPYLDQILSSFWSRLDKKSRNILNDQVRLINVLRECCETIKRLKDTTAKKMELLVHLLETKVRPLVKVRPIALPLDPDVLICDVCPETSKVFKSSLSPLKITFKTTLNQPYHLMFKVGDDLRQDQLVVQIISLMNELLKNENVDLKLTPYKILATGPQEGAIEFIPNDTLASILSKYHGILGYLKLHYPDENATLGVQGWVLDNFVKSCAGYCVITYILGVGDRHLDNLLVTPDGHFFHADFGYILGQDPKPFPPLMKLPPQIIEAFGGAESSNYDKFRSYCFVAYSILRRNAGLILNLFELMKTSNIPDIRIDPNGAILRVRERFNLNMSEEDATVHFQNLINDSVNALLPIVIDHLHNLAQYWRT
notes: Vps34, S. cerevisiae
- stoichiometry N [2]: 1

- binding result (Vps15 (WD40Δ) (1 to 981)): binds
- binding result [3]: binds
B3: Vps34 D731N (KI) (enzyme, S. cerevisiae, UniProt P22543 1-875, looked up)
chain: B2 chain with D731N

B4: GST-Atg38 (1 to 78) (domain or fragment, S. cerevisiae, UniProt Q05789 1-78, looked up)
chain: MSTLAEVYTIIEDAEQECRKGDFTNAKAKYQEAIEVLGPQNENLSQNKLSSDVTQAIDLLKQDITAKIQELELLIEKQ
notes: Atg38, S. cerevisiae, MIT domain, residues 1 to 78; also called MIT domain alone; source: E. coli, purified (Glutathione Sepharose, eluted with glutathione); not shown: GST, N-terminal, kept
- binding result [4]: binds

B5: Vps30/Atg6 (subunit of the purified yeast complex I) (natural protein, S. cerevisiae, UniProt Q02948 1-557, looked up)
chain: MKCQTCHLPLQLDPSLEGLSLTQRNLLLSNNSIITATNENVISNKGIEAADNCGPQIPKERLRRLGEIQNIKDLNLKDDKLITDSFVFLNHDDDDNANITSNSREDQRYGNANGNDNKKANSDTSDGTSTFRDHDEEEQEATDEDENQQIQLNSKTLSTQVNAMTNVFNILSSQTNIDFPICQDCCNILINRLKSEYDDAIKERDTYAQFLSKLESQNKEISESNKEKQYSHNLSEKENLKKEEERLLDQLLRLEMTDDDLDGELVRLQEKKVQLENEKLQKLSDQNLMDLNNIQFNKNLQSLKLQYELSLNQLDKLRKINIFNATFKISHSGPFATINGLRLGSIPESVVPWKEINAALGQLILLLATINKNLKINLVDYELQPMGSFSKIKKRMVNSVEYNNSTTNAPGDWLILPVYYDENFNLGRIFRKETKFDKSLETTLEIISEITRQLSTIASSYSSQTLTTSQDESSMNNANDVENSTSILELPYIMNKDKINGLSVKLHGSSPNLEWTTAMKFLLTNVKWLLAFSSNLLSKSITLSPTVNYNDKTISGN
notes: Vps30/Atg6, S. cerevisiae
- stoichiometry N [2]: 1

B6: Atg14 (subunit of the purified yeast complex I) (natural protein, S. cerevisiae, UniProt P38270 1-344, looked up)
chain: MHCPICHHRAHVVYCAHCINTSPSLLLKLKLDLILLKDENKELNGKVEQILNEAMNYDQLDIKRMEKKKDPLMNSLMKLDVLRMKKNNNLIRHRIEQLNERIYSKRNHISELKVEIDNYKCYKVGTGTDKLREQVEISDAKNKLAQVSKICESARDYKLNLLNNWFVIQKLQDNFQIPFAIAFQPLISLKNFRILPLAITNDSINIMWKYISFFSDILMIKLPYTNKICEQPMFEFSDSIQTVVQRLIKLIINILQICRHLKLVPSTPMDIPWLLDQYDVDGLFYNMVKRNKMKCRSVSLYWTFGMLYSMVLDNMNNPQRGHPARRTAPPPTVTGPHDRWYVVG
notes: Atg14, S. cerevisiae
- stoichiometry N [2]: 1
